The record followed here is paper PMC4585561.

In the assay the target is VSD from KvAP (residues -12 to 136). The assay is described as follows: ITC; 350 uM VSTx1 titrated into 36 uM VSD in the cell, 25 °C, 10 mM PIPES-NaOH pH 6.5, 4 mM DM; single-site model. (In general: Isothermal titration calorimetry measures the heat released or taken up as one component is titrated into another.)

Broadly, the Kd is the constant that tells how readily two partners part at equilibrium. Low readings indicate higher affinity, high ones lower affinity. As a reminder, the stoichiometry N is the number of molecules, sites or subunits per partner or assembly. “VSTx1 (from UniProt P60980 30-63) (peptide)” yielded a Kd of 1500 nM, a dH of -4.5 kcal/mol and a stoichiometry N of 0.97.
